Patent US20110064740A1

What was measured:
[1] = biological target: Cell-surface full length amyloid precursor protein (APP) on HEK293T cells transfected with wild type APP DNA (UniProt P05067); assay: FMAT ABI8200, HEK293T cells transfected with wild type APP, mock subtracted; Experiment 2
[2] = biological target: Cell-surface full length amyloid precursor protein (APP) on HEK293T cells transfected with wild type APP DNA (UniProt P05067); assay: FMAT ABI8200, HEK293T cells transfected with wild type APP, mock subtracted; Experiment 1

Sequence of Cell-surface full length amyloid precursor protein (APP) on HEK293T cells transfected with wild type APP DNA (P05067 18-770): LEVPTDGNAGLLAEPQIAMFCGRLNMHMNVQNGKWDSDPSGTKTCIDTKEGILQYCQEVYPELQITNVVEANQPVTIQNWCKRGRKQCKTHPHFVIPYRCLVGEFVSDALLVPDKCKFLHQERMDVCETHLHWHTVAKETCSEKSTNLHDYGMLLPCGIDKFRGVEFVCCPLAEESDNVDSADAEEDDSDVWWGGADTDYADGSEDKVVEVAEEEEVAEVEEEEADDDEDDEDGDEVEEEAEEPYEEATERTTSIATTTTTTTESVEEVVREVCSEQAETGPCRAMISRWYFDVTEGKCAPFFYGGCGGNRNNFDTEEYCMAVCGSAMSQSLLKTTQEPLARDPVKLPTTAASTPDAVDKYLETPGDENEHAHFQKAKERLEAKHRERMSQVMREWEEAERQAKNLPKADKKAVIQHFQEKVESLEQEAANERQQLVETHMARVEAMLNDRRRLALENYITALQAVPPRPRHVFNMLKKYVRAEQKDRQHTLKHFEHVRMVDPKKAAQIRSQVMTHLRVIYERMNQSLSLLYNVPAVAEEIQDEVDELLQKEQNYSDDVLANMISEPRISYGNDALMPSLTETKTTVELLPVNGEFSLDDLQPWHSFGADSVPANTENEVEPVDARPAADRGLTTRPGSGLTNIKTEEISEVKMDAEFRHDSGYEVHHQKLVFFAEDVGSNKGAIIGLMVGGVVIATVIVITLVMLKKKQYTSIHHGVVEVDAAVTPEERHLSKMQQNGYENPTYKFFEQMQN

| % of LN27 binding [1] [%] | % of LN27 binding [2] [%] | Substance |
| --- | --- | --- |
| 2 | 5.5 | Antibody G210 which recognises the x-40 form of the β-amyloid peptide |
| 100 | 100 | LN27 (Zymed) mouse IgG to extracellular domain of APP (antibody) |
